Measurements as given in patent US20190202920A1 (F STAR BETA, published 2019).

Tests used:
[1] = molecular target: T1, cell surface EGFR on human cancer cell lines (A431NS, MDA-MB-468, U87MG) (human, UniProt P00533 25-1210); assay: flow cytometry, blocking of biotinylated EGF binding to MDA-MB-468 cells
T1 construct: whole, on cells; The cell line of each entry is named under assay; also called EGFR on A431NS cells; EGFR on MDA-MB-468 cells

[2] = molecular target: T2, His-tagged human EGFR (Sino Biological) (human, UniProt P00533 25-645); assay: SPR (BIAcore T200), mAb^2 captured on anti-human Fab chip, His-tagged human EGFR as analyte, 1:1 fit
T2 construct: also called His-tagged EGFR

[3] = molecular target: T3, cell surface EGFR on NCI-H1975 cells (mutated EGFR L858R and T790M) (UniProt P00533 25-1210, limits assumed); assay: flow cytometry on NCI-H1975 cells
T3 construct: whole, on cells

[4] = molecular target: T4, cell surface EGFR on HCC827 cells (E746-A750 deletion) (UniProt P00533 25-1210); assay: flow cytometry on HCC827 cells
T4 construct: whole, on cells; Residues E746-A750 are deleted; a deletion cannot be written as a substitution

IC50 [1] [nM] | Kd [2] [nM] | EC50 [3] [nM] | EC50 [4] [nM] | Binder
0.45 | 3.6 |  |  | mAb^2 RI/FS1-60 (bispecific antibody, human IgG2, kappa) heavy: QVQLQESGPGLVKPSETLSLTCTVSGGSISIYYWSWIRQPPGKGLEWIGYVYYSGSTNYNPSLKSRVTISVDTSKNQFSLKLNSVTAADTAVYYCARGGYDFWSGYFDYWGQGTLVTVSSASTKGPSVFPLAPCSRSTSESTAALGCLVKDYFPEPVTVSWNSGALTSGVHTFPAVLQSSGLYSLSSVVTVPSSNFGTQTYTCNVDHKPSNTKVDKTVERKCCVECPPCPAPPVAGPSVFLFPPKPKDTLMISRTPEVTCVVVDVSHEDPEVQFNWYVDGVEVHNAKTKPREEQFNSTFRVVSVLTVVHQDWLNGKEYKCKVSNKGLPAPIEKTISKTKGQPREPQVYTLPPSRDELDEGGPVSLTCLVKGFYPSDIAVEWESTYGPENNYKTTPPVLDSDGSFFLYSRLTVSHWRWYSGNVFSCSVMHEALHNHYTQKSLSLSPG light: not shown
 | 1.8 | 2.16 | 3.56 | mAb^2 RI/FS1-65 (bispecific antibody, human IgG2, kappa) heavy: QVQLQESGPGLVKPSETLSLTCTVSGGSISIYYWSWIRQPPGKGLEWIGYVYYSGSTNYNPSLKSRVTISVDTSKNQFSLKLNSVTAADTAVYYCARGGYDFWSGYFDYWGQGTLVTVSSASTKGPSVFPLAPCSRSTSESTAALGCLVKDYFPEPVTVSWNSGALTSGVHTFPAVLQSSGLYSLSSVVTVPSSNFGTQTYTCNVDHKPSNTKVDKTVERKCCVECPPCPAPPVAGPSVFLFPPKPKDTLMISRTPEVTCVVVDVSHEDPEVQFNWYVDGVEVHNAKTKPREEQFNSTFRVVSVLTVVHQDWLNGKEYKCKVSNKGLPAPIEKTISKTKGQPREPQVYTLPPSRDELDEGGPVSLTCLVKGFYPSDIAVEWESTYGPENNYKTTPPVLDSDGSFFLYSKLTVSYWRWVKGNVFSCSVMHEALHNHYTQKSLSLSPG light: not shown
0.71 | 3.5 |  |  | mAb^2 FI/FS1-60 (bispecific antibody, human IgG1, kappa) heavy: QVQLVQPGAEVKKPGTSVKLSCKASGYTFTTYWMHWVRQAPGQGLEWIGEINPTNGHTNYNQKFQGRATLTVDKSTSTAYMELSSLRSEDTAVYYCARNYVGSIFDYWGQGTLLTVSSASTKGPSVFPLAPSSKSTSGGTAALGCLVKDYFPEPVTVSWNSGALTSGVHTFPAVLQSSGLYSLSSVVTVPSSSLGTQTYICNVNHKPSNTKVDKRVEPKSCDKTHTCPPCPAPELLGGPSVFLFPPKPKDTLMISRTPEVTCVVVDVSHEDPEVKFNWYVDGVEVHNAKTKPREEQYNSTYRVVSVLTVLHQDWLNGKEYKCKVSNKALPAPIEKTISKAKGQPREPQVYTLPPSRDELDEGGPVSLTCLVKGFYPSDIAVEWESTYGPENNYKTTPPVLDSDGSFFLYSRLTVSHWRWYSGNVFSCSVMHEALHNHYTQKSLSLSPG light: DIVMTQSPDSLAMSLGERVTLNCKASENVVSYVSWYQQKPGQSPKLLIYGASNRESGVPDRFSGSGSATDFTLTISSVQAEDVADYHCGQSYNYPYTFGQGTKLEIKRTVAAPSVFIFPPSDEQLKSGTASVVCLLNNFYPREAKVQWKVDNALQSGNSQESVTEQDSKDSTYSLSSTLTLSKADYEKHKVYACEVTHQGLSSPVTKSFNRGEC
